Laboratory results reported in PMC3288073, “Aptamers as a Sensitive Tool to Detect Subtle Modifications in Therapeutic Proteins”.

Tests used:
[1] = target: thrombin (Thrombin JMI), bovine plasma (Bos taurus, UniProt P00735;P00735 318-366;367-625); experiment: ELISA; 1 mM Mg2+; ELISA: 25 mM Tris, 10 mM NaCl, 1 mM MgCl2, pH 7.4, RT, 1 h; aptamers heated 95 C 10 min and refolded at RT 20 min; Kd unit (nM) from Results text. BLI: Octet RE; settings: protein: native; copies: 1;1
[2] = target: thrombin (Recothrom), recombinant human (Homo sapiens, UniProt P00734;P00734 315-363;364-622); experiment: ELISA (apparent Kd); 1 mM Mg2+; ELISA: 25 mM Tris, 10 mM NaCl, 1 mM MgCl2, pH 7.4, RT, 1 h; aptamers heated 95 C 10 min and refolded at RT 20 min; Kd unit (nM) from Results text. BLI: Octet RE

| Binder | binding result [1] | Kd [2] [nM] |
| --- | --- | --- |
| Aptamer 30-8 (structured_DNA) DNA: AGATGCCTGTCGAGCATGCTGTGAATAGGTAGGGTCGGATGGGCTACGGTGTAGCTAAACTGCTTTGTCGACGGG | no binding | 0.58 |
| Aptamer 30-14 (structured_DNA) DNA: AGATGCCTGTCGAGCATGCTGTTGTGGTAGGGTTAGGGATGGTAGCGGTTGTAGCTAAACTGCTTTGTCGACGG | no binding | 2.75 |
| CAGTCCGTGGTAGGGCAGGTTGGGGTGACTTCGTGGAA (structured_DNA) [Aptamer 60-18/38] | no binding | 1.48 |
| GGTTGGTGTGGTTGG (structured_DNA) [Aptamer G15D] | – | 1.48 |
| ACCCGTGGTAGGGTAGGATGGGGTGGT (structured_DNA) [Aptamer 30-38/27] | no binding | 1.28 |
| TACCGTGGTAGGGAAGGTTGGAGTGTA (structured_DNA) [Aptamer 30-16/27] | no binding | 1.54 |
